From publication PMC4529168, “Molecular Cloning, Heterologous Expression, and Functional Characterization of an NADPH-Cytochrome P450 Reductase Gene from Camptotheca acuminata, a Camptothecin-Producing Plant” (PLoS ONE, 2015) come the findings set out here.

The data set has as its system T1, NC(=O)C1=CN([C@@H]2O[C@H](COP(=O)(O)OP(=O)(O)OC[C@H]3O[C@@H](n4cnc5c(N)ncnc54)[C@H](OP(=O)(O)O)[C@@H]3O)[C@@H](O)[C@H]2O)C=CC1.
T1 construct: N-terminal 69 residues (membrane anchor) removed, His6-tag kept (probably N-terminal, 660 residues with tag), expressed in E. coli BL21(DE3), Ni-NTA purified
The data set can be described thus: purified protein. In kind it is biochemical, Camptotheca acuminata. The conditions noted are these: 75 μM equine heart cytochrome c, 50 mM Tris-HCl pH 7.4, 25°C.

Chain of tCamCPR (Camptotheca acuminata) (chain, as listed by the source): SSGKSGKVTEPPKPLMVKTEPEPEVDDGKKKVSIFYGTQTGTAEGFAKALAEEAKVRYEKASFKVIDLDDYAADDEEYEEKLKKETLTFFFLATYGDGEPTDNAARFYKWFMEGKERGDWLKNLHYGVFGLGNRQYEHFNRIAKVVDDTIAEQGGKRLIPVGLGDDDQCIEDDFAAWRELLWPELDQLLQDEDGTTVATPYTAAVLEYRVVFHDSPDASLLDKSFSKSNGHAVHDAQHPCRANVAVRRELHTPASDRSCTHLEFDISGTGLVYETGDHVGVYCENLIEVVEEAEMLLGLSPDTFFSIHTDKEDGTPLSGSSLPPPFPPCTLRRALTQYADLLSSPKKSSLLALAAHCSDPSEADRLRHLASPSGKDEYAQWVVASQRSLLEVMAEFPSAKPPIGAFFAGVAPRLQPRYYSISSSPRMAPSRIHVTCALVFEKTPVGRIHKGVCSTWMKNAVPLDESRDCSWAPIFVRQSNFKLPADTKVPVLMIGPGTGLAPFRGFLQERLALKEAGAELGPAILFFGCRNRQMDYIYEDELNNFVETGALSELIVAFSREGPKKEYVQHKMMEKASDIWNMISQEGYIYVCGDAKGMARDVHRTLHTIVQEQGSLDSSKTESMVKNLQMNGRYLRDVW

Regarding tCamCPR (Camptotheca acuminata), the Km (in general, the substrate concentration at which the rate is half of its maximum) was determined as 18.7 ± 3.6 µM.
